Data from patent publication US20260273085A1 (HANSOH BIO, published 2026).
Substitutions are numbered along the chain they refer to.

T1: human CDH6-His tag (Acro Biosystems, catalog number CA6-H5229) (human, UniProt P55285 54-615)
T1 construct: Bought protein; also called hCDH6; not shown: His tag
T1 sequence (looked up): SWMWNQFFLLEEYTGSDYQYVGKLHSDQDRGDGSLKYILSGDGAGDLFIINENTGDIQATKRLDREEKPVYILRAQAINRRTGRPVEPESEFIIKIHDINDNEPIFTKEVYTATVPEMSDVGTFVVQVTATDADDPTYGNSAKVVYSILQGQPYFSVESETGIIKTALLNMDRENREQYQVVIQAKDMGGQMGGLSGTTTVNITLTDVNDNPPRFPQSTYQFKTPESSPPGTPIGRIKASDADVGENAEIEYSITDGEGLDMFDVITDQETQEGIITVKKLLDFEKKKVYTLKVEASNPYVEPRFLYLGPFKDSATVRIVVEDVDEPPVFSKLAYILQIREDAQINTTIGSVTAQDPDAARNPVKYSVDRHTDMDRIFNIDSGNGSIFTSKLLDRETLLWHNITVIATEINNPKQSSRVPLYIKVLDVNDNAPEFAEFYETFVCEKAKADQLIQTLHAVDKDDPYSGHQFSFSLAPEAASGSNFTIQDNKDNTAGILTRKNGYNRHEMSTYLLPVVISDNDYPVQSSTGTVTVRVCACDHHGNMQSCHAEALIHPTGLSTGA

T2: human CDH16-His tag (Sino biological, catalog number 10915-H08H) (human, UniProt O75309 19-786)
T2 construct: Bought protein; also called hCDH16; not shown: His tag
T2 sequence (looked up): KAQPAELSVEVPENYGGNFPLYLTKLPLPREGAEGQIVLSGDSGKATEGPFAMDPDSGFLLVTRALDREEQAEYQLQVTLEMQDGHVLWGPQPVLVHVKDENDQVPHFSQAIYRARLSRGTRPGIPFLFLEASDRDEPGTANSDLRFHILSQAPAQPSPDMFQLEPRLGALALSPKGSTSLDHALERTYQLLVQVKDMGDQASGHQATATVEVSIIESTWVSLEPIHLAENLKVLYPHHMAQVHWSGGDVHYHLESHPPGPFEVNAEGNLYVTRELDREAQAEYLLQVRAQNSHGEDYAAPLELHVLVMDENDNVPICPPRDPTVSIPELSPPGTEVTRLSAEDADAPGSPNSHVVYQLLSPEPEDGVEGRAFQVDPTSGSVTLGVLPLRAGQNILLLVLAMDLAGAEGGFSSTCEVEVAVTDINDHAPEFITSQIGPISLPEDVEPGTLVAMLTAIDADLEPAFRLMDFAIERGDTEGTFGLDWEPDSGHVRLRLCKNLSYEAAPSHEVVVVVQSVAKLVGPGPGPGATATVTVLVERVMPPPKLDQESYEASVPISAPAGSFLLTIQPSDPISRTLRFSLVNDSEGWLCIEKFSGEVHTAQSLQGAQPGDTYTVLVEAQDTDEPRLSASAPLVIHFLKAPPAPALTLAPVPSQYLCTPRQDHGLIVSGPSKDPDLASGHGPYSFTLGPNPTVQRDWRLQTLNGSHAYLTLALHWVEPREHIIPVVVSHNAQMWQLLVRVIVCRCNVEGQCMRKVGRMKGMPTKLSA

B1: 4F9 anti-CDH17 recombinant antibody (human IgG1) (antibody, V domains shown)
VH: QVQLQESGPGLVKPSGTLSLTCAVSGGSISSSNWWSWVRQPPGKGLEWIGEIYHSGSTSYNPSLKSRVTISVDKSKNQFSLKLSSVTAADTAVYYCARNDWGFPLDCWGQGTLVTVSS
VL: DIQMTQSPSSLSASVGDRVTITCRASQSISSYLNWYQQKPGKAPKLLIYAASSLQSGVPSRFSGSGSGTHFTLTISSLQPEDFATYYCQQSHNIPITFGQGTRLEIKR
B2: 13C7 anti-CDH17 recombinant antibody (human IgG1) (antibody, V domains shown)
VH: QITLKESGPTLVKPTQTLTLTCTFSGFSLSTSGVGVGWIRQPPGKALEWLALIYWNDDKRYRPSLKNRLTITKDTSKNQVVLTMTNMDPVDTATYYCTHYGVTAPFYNWFDPWGQGTLVTVSS
VL: DIQMTQSPSSLSASVGDRVTITCRASQSITSYLNWYQQKPGKAPKLLIYAASSLQSGVPSRFSGSGSGTDFTLTISSLQPEDFATYYCQRSYSTLTFGGGTKVEIKR
B3: 19C7 anti-CDH17 recombinant antibody (human IgG1) (antibody, V domains shown)
VH: B2 VH with F27I, S32G, A51S, R62S, N67S, T75S, T98A, Y100S, V102L, T103A
VL: B2 VL with T30S, S31N, Q38L, K42N, Y49F, Y87F
B4: 14B12 anti-CDH17 recombinant antibody (human IgG1) (antibody, V domains shown)
VH: QVQLQESGPGLVKPSETLSLTCTVSGGSINTYYRSWIRQPPGKGLEWIGYIYYSGNTNYNPSLKSRVTISADTSKNQFSLNLISVTAADTAMYYCARAQYGEEAFDIWGQGTLVTVSS
VL: DIQMTQSPSSLSASVGDRVTITCRASQSITTYLNWYQQKPGKAPQLLIFAASRLQTGVPSRFSGSGSGTDFTLTISSLLPGDFATYYCQQSYNTPPTFGGGTKVEIKR
notes: Recombinant human IgG1 / kappa, expressed in CHO or ExpiCHO-S cells
B5: 17F3 anti-CDH17 recombinant antibody (human IgG1) (antibody, V domains shown)
VH: EVQLVESGGGLVKSGGSLRLSCAASGFTFSSYSLKWVRQAPGKGLEWVSSISSSSGYIYYADSVKGRFTISRDNAKNSLYLQMNSLRAEDTAMYYCARAVSTIAARPGYYYYYMDVWGKGTLVTVSS
VL: DIQMTQSPSSVSASIGDRVTITCRASQDISTWFAWYQQKPGKAPKLLIYAASTLRSGVPSRFSGSGSGTDFTLTINSLQPEDFATYYCQQANSFPLTFGGGTKVEIKR
B6: 2F9 anti-CDH17 recombinant antibody (human IgG1) (antibody, V domains shown)
VH: EVQLVESGGGVVRPGGSLRLSCAASGFTFDDYGMSWVRQAPGKGLEWVSGLSWNGGNTYYADSVKGRFTISRDNAKNSLYLQMNSLRAEDTALYYCARGSRYNWNYDAFDIWGQGTLVTVSS
VL: DIQMTQSPSSLSASIGDRVTITCRASQGIRNALGWYQQKPGKAPKRLIYAASNLQSGVPSRFSGSGSGTEFTLTISSLQPEDFATYYCLQHNSYPFTFGPGTKVEIKR
B7: 9E2 anti-CDH17 recombinant antibody (human IgG1) (antibody, V domains shown)
VH: B6 VH with D31N, L51I, S52N, N57S, K65R, N105S
VL: B6 VL with I15V, I29V, N53S
B8: 1H10 anti-CDH17 recombinant antibody (human IgG1) (antibody, V domains shown)
VH: QVQLVESGGGVVQPGRSLRLSCVASGFTFSSYGMHWVRQAPGKGLEWVTFIWYDGSNKNYADSVKGRFTISRDNSKNTLNLQMNSLRVEDTAVYYCARDRYSSGWDVFDYWGQGTLVTVSS
VL: DIQMTQSPSSVSASVGDRVTITCRASQDISSWLAWYQQQPGKAPKLQIYAASSLQSGVPSRFSGSGSGTDFTLTISSLQPEDFATYYCQQAKSFPPTFGQGTKVEIKR
B9: 15A4 anti-CDH17 recombinant antibody (human IgG1) (antibody, V domains shown)
VH: B8 VH with V23A, T28N, T49A, I51V, K58Q, K76N, N80Y, V88A
VL: B8 VL with D28G, Q39K, Q47L, Y49F, D70G
B10: 10E11 anti-CDH17 recombinant antibody (human IgG1) (antibody, V domains shown)
VH: EVQLVQSGTEVKKPGESLKISCKDSGYRFSSYWIGWVRQMPGKGLEWMGIIYPGDSDTRYSPSFQGQVTISADKSISTAYLQWRSLKASDTAMYYCARRGWVNYFDYWGQGTLVTVSS
VL: B5 VL with I15V, D28G, T31N, F33L, A34G, T53S, R55Q, N76S
notes: as for B4

Experiments:
[1] = target: human CDH17 as originally expressed on cancer cells (AsPC1, GP2d and other CDH17 expressing cell lines) (human) (UniProt Q12864); assay: flow cytometry on AsPC1 cells, Alexa Fluor 647 labelled antibody
[2] = target: human CDH17 as originally expressed on cancer cells (AsPC1, GP2d and other CDH17 expressing cell lines) (human, UniProt Q12864 23-832); assay: cell-based or functional assay
[3] = target: T1, human CDH6-His tag (Acro Biosystems, …); assay: BLI (Octet Red 384), antibody captured on AHC biosensor
Protocol: (§1) The affinity between CDH17 antibodies and CDH17 antigens and homologues was determined by Octet (Octet Red 384) instrument. Anti-hIgG Fc Capture (AHC) Biosensors were selected, and the sensors were balanced with buffer solution for 10 min. Subsequently, sensors were dipped into the wells containing 1 μg/ml of CDH17 lead antibodies to load onto the probes. The excess unbound antibodies were washed off. The antigen binding was performed in the wells containing serially diluted human CDH17-His tag (Sino biological, catalog number 11360-H08H), cynomolgus CDH17-His tag (Acro Biosystems, catalog number CA7-C52H4), homologs human CDH6-His tag (Acro Biosystems, catalog number CA6-H5229) and human CDH16-His tag (Sino biological, catalog number 10915-H08H), with concentration ranging from 200 nM to 3.1 nM, for 5 min. Then probes were dipped into wells containing renewed buffer to initiate the dissociation for another 15 min.

[4] = target: T2, human CDH16-His tag (Sino biological, …); assay: as above
Protocol: as §1

[5] = target: T3, cynomolgus CDH17-His tag (Acro Biosystems, catalog number CA7-C52H4) (cynomolgus, UniProt A0A2K5X8I8 31-795); assay: BLI (Octet Red 384), antibody captured on AHC biosensor, antigen 200 nM to 3.1 nM
T3 construct: Bought protein; also called cCDH17; cynomolgus CDH17 protein; not shown: His tag
T3 sequence (A0A2K5X8I8 entry or part of it, form in doubt): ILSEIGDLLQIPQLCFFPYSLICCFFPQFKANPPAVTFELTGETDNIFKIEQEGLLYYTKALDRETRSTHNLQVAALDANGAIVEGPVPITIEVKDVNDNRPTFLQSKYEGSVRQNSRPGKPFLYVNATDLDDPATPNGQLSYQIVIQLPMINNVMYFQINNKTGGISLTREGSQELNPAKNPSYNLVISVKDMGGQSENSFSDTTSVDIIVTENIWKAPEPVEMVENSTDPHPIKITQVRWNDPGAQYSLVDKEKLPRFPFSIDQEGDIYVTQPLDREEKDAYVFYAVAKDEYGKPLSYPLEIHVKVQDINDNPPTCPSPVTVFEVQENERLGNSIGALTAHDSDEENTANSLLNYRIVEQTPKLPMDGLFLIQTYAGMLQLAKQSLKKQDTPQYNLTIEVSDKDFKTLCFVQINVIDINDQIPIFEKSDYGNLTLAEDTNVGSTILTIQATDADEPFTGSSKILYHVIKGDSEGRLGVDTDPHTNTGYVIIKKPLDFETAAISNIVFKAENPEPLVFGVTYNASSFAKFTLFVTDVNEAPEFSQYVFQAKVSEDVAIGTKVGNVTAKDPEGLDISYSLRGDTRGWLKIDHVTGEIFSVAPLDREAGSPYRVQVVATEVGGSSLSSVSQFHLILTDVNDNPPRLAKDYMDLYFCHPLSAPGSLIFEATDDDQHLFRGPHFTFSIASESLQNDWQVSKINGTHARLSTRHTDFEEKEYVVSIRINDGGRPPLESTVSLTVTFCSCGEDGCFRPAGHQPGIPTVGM
Protocol: as §1

Molecule	IC50 of indirect killing assay (internalization) in AsPC1 cells, complex with Fab anti-human IgG Fc-MMAF [2] [nM]	other results
HBMAB-81, reformatted mAb with the CDH17 binding arm from bispecific antibody BI 905771 and human IgG1 backbone		EC80 [1]: 0.97 nM
B1	0.29	
B2	0.09	
B3	0.09	
B4	0.09	binding result [3]: no binding (tested: 200 nM highest antigen concentration); binding result [4]: no binding (tested: 200 nM highest antigen concentration)
B5	0.08	
B6	0.14	
B7	0.15	
B8	0.19	
B9	1.99	
B10	0.08	binding result [3]: no binding (tested: 200 nM highest antigen concentration); binding result [4]: no binding (tested: 200 nM highest antigen concentration); Kd [5]: 15 nM; koff [5]: 0.0012 s⁻¹; kon [5]: 80000 M⁻¹ s⁻¹
